In article doi:10.1101/2025.10.29.685377:
Read-outs that look alike come from different tables or passages of the source.

How the values were obtained:
[1] = molecular target: Alka channel (Drosophila melanogaster alkaline taste receptor Alka) (Drosophila melanogaster); assay: cryo-EM structure
[2] = molecular target: Alka channel (Drosophila melanogaster alkaline taste receptor Alka) (Drosophila melanogaster); assay: cryo-EM structure; remark: listed apart in the source

Alka channel (Drosophila melanogaster alkaline taste receptor Alka)
stoichiometry N [1]: 5
stoichiometry N [2]: 5
